Data from US8470599B2, “Renal progenitor cells from embryonic stem cells” (The Regents of the University of Michigan, priority 2005, dated 2013).

B1: bmp-7: growth factor (R & D Systems), third component of the nephrogenic cocktail (protein, UniProt P18075 293-431, looked up)
Bone morphogenetic protein 7: STGSKQRSQNRSKTPKNQEALRMANVAENSSSDQRQACKKHELYVSFRDLGWQDWIIAPEGYAAYYCEGECAFPLNSYMNATNHAIVQTLVHFINPETVPKPCCAPTQLNAISVLYFDDSSNVILKKYRNMVVRACGCH
B2: bmp4: growth factor (R & D Systems) added to retinoic acid and activin-a treated EBs (protein, UniProt P12644 293-408, looked up)
Bone morphogenetic protein 4: SPKHHSQRARKKNKNCRRHSLYVDFSDVGWNDWIVAPPGYQAFYCHGDCPFPLADHLNSTNHAIVQTLVNSVNSSIPKACCVPTELSAISMLYLDEYDKVVLKNYQEMVVEGCGCR

Test system: EB derived cells in E12.5 cultured kidney rudiments
Test: Injection of EB derived cells into E12.5 cultured kidney rudiments, lacZ / laminin / LTA staining
Format: cell-based, mouse
Settings: for contribution to developing tubules: compared to untreated EB cells, rudiments 4 or 5 days after injection
Method: Cryosections from kidney rudiments were stained for lacZ expression (A & C) and with anti-laminin antibodies (B & D). […] C & D) Many lacZ positive cells from control EBs were found in large and small aggregates (arrows) that remained mesenchymal in appearance and were not surrounded by laminin containing basement membranes. Some blue cells from control EBs were also found in tubules. Magnification bars are 100 microns.
E12.5 kidney rudiments were injected with RA7 treated EB cells (A-F) or control EB cells (G & H) and stained for lacZ, laminin, and LTA binding. […] Arrows point to glomerular tufts. B) Laminin staining of same tissue as in A. C & D) Co-localization of lacZ positive cells in developing proximal tubules (arrows) that also stain with LTA lectin (green) and are surrounded by laminin containing basement membranes (red). E & F) Another developing proximal tubule derived from RA7 treated EB cells (arrow) stained as above. G & H) Many control EB cells localize to interstitial and peripheral mesenchyme (arrows), though a small number of lacZ positive cells are also found in tubules.
This example describes cell culture and microinjection techniques utilized in experiments conducted during the course of the present invention. Mouse ES cells (R26) were grown in high glucose DMEM (GIBCO BRL), 10% fetal bovine serum (Atlanta Biologicals), 0.1 mM β-mercaptoethanol (Sigma), 4 mM glutamine (GIBCO BRL), 20 unit/ml PEN/STREP (GIBCO BRL), 0.1 mg/ml G418 (GIBCO BRL), and 10^3 unit/ml rLIF (Chemicon) on a 0.1% gelatin-coated tissue culture plate at 37° C. CO2 incubator for 2 days. The ES cells were transferred using 0.05% trypsin plus 0.53 mM EDTA (GIBCO BRL) to a 100-mm bacteriological petri dish (Falcon) to induce embryoid body (EB) formation. The EB suspension was cultured in the same medium without rLIF for 2 days and then transferred to 60-mm tissue culture plates coated with 0.1% gelatin. Each 60-mm tissue culture plate contained about 100 EBs. […]

Row | Molecule | contribution to developing tubules | ability of EB cells to contribute to tubules in vitro (addition of 100 ng/ml bmp4)
1 | B1 | enhanced | 
2 | B2 | did not integrate | completely inhibited
